According to patent publication US20240400635A1 (Novo Nordisk, published 2024):

Key:
Test in all cases: cell-based or functional assay
human GLP-1 receptor [1] = target: T1, human GLP-1 receptor (human, UniProt P43220 24-463)
FGF receptor/BKL complex = FGF receptor/BKL complex (human, UniProt Q86Z14 1-1044)
human GLP-1 receptor [2] = target: T1, human GLP-1 receptor; remark: listed apart in the source

Chain of FGF receptor/BKL complex (Q86Z14 whole entry, one chain of several): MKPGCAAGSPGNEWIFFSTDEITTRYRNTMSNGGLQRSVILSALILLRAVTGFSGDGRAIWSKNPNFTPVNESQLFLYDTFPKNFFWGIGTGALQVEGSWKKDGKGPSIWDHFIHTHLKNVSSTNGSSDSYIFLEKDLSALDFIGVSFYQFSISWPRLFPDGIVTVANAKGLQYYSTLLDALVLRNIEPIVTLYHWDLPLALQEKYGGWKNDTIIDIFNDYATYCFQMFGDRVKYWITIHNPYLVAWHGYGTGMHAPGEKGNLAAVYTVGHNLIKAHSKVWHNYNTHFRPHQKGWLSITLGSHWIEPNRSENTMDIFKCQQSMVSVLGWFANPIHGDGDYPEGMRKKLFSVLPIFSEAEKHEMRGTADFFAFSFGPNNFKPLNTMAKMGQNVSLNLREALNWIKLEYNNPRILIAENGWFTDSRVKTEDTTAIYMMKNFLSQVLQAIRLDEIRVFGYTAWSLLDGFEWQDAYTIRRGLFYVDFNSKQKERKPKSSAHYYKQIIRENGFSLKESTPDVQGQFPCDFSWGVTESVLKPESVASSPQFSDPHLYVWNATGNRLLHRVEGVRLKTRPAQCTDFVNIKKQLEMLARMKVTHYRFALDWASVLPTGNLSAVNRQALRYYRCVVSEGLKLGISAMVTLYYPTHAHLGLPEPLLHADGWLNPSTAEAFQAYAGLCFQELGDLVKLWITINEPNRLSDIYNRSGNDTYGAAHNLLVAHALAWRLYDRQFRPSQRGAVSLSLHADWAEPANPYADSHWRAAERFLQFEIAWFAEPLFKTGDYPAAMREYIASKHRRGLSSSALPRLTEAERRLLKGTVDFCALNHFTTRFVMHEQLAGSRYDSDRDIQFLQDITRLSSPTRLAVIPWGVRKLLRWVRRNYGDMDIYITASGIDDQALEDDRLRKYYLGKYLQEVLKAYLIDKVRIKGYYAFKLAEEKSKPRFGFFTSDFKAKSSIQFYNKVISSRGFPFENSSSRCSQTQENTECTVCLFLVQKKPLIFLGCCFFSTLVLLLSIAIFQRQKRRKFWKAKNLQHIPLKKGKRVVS

| GLP-1 receptor potency [EC50] pM 0% HSA (human GLP-1 receptor [1]) [pM] | GLP-1 receptor potency [EC50] pM 1% HSA (human GLP-1 receptor [1]) [pM] | FGF1 receptor potency [EC50] nM 0.1% HSA (FGF receptor/BKL complex) [nM] | FGF21 receptor potency [EC50] nM 0% HSA (FGF receptor/BKL complex) [nM] | GLP-1R potency loss against Chem. 24, absence of HSA (human GLP-1 receptor [2]) [fold] | GLP-1R potency loss against Chem. 24, presence of HSA (human GLP-1 receptor [2]) [fold] | Binder |
| --- | --- | --- | --- | --- | --- | --- |
| 54.6 | 394 | 0.73 | 0.41 | – | – | S{Beta-36}-[2-[2-[[2-[2-[2-[[2-[2-[2-[[(4S)-4-carboxy-4-(17-carboxyheptadecanoyl-amino)butanoyl]amino]ethoxy]ethoxy]acetyl]amino]ethoxy]ethoxy]acetyl]amino]-eth … (ligand, Cys36 of the GLP-1 part (GLP-1(7-37) numbering; residue 30 of the chain) S-alkylated with substituent Chem. 7) HGEGTFTSDVSSYLEEQAAREFIAWLVKGCGGAQPGAQPGAQPGAQPAHPIPDSSPLLQFGGQVRQRYLYTDDAQQTEAHLEIREDGTVGGAADQSPESLLQLKALKPGVIQILGVKTSRFLCQRPDGALYGSLHFDPEACSFRELLLEDGYNVYQSEAHGLPLHLPGQKSPHRDPAPRGPARFLPLPGLPPALPEPPGILAPQPPDVGSSDPLSLVGGSQGRSPSYES |
| 11.4 | 389 | 8 | 1.2 | – | – | S{Beta-27}-[2-[2-[[2-[2-[2-[[2-[2-[2-[[(4S)-4-carboxy-4-(17-carboxyheptadecanoyl-amino)butanoyl]amino]ethoxy]ethoxy]acetyl]amino]ethoxy]ethoxy]acetyl]amino]-eth … (ligand, Cys27 of the GLP-1 part (GLP-1(7-37) numbering; residue 21 of the chain) and Cys180 of the FGF21 part (FGF21(1-181) numbering; residue 228 of the chain) each S-alkylated with substituent Chem. 7) HGEGTFTSDVSSYLEEQAARCFIAWLVKGGGGAQPGAQPGAQPGAQPAHPIPDSSPLLQFGGQVRQRYLYTDDAQQTEAHLEIREDGTVGGAADQSPESLLQLKALKPGVIQILGVKTSRFLCQRPDGALYGSLHFDPEACSFRELLLEDGYNVYQSEAHGLPLHLPGQKSPHRDPAPRGPARFLPLPGLPPALPEPPGILAPQPPDVGSSDPLSLVGPSQGRSPSYCS |
| 13.8 | 78.7 | 0.64 | 0.45 | – | – | S{Beta-27}-[2-[2-[[2-[2-[2-[[2-[2-[2-[[(4S)-4-carboxy-4-(17-carboxyheptadecanoyl-amino)butanoyl]amino]ethoxy]ethoxy]acetyl]amino]ethoxy]ethoxy]acetyl]amino]-eth … (ligand, Cys27 of the GLP-1 part (GLP-1(7-37) numbering; residue 21 of the chain) S-alkylated with substituent Chem. 7) HGEGTFTSDVSSYLEEQAAKCFIAWLVKGGGGAQPGAQPGAQPGAQPAHPIPDSSPLLQFGGQVRQRYLYTDDAQQTEAHLEIREDGTVGGAADQSPESLLQLKALKPGVIQILGVKTSRFLCQRPDGALYGSLHFDPEACSFRELLLEDGYNVYQSEAHGLPLHLPGQKSPHRDPAPRGPARFLPLPGLPPALPEPPGILAPQPPDVGSSDPLSLVGGSQGRSPSYES |
| 224 | 4410 | 8.97 | 0.24 | 40 | 26 | S{Beta-26}-[2-[2-[[2-[2-[2-[[2-[2-[2-[[(4S)-4-carboxy-4-(17-carboxyheptadecanoyl-amino)butanoyl]amino]ethoxy]ethoxy]acetyl]amino]ethoxy]ethoxy]acetyl]amino]-eth … (ligand, Cys26 of the GLP-1 part (GLP-1(7-37) numbering; residue 20 of the chain) and Cys180 of the FGF21 part (FGF21(1-181) numbering; residue 228 of the chain) each S-alkylated with substituent Chem. 7) HGEGTFTSDVSSYLEEQAACEFIAWLVKGGGGAQPGAQPGAQPGAQPAHPIPDSSPLLQFGGQVRQRYLYTDDAQQTEAHLEIREDGTVGGAADQSPESLLQLKALKPGVIQILGVKTSRFLCQRPDGALYGSLHFDPEACSFRELLLEDGYNVYQSEAHGLPLHLPGQKSPHRDPAPRGPARFLPLPGLPPALPEPPGILAPQPPDVGSSDPLSLVGPSQGRSPSYCS |
| 17.2 | 104 | 0.43 | 0.17 | – | – | S{Beta-27}-[2-[2-[[2-[2-[2-[[2-[2-[2-[[(4S)-4-carboxy-4-(17-carboxyheptadecanoyl-amino)butanoyl]amino]ethoxy]ethoxy]acetyl]amino]ethoxy]ethoxy]acetyl]amino]-eth … (ligand, Cys27 of the GLP-1 part (GLP-1(7-37) numbering; residue 21 of the chain) S-alkylated with substituent Chem. 7) HGEGTFTSDVSSYLEEQAARCFIAWLVKGGGGAQPGAQPGAQPGAQPAHPIPDSSPLLQFGGQVRQRYLYTDDAQQTEAHLEIREDGTVGGAADQSPESLLQLKALKPGVIQILGVKTSRFLCQRPDGALYGSLHFDPEACSFRELLLEDGYNVYQSEAHGLPLHLPGQKSPHRDPAPRGPARFLPLPGLPPALPEPPGILAPQPPDVGSSDPLSLVGGSQGRSPSYES |
| 67.4 | 397 | 0.51 | 0.43 | > 10 | – | S{Beta-26}-[2-[2-[[2-[2-[2-[[2-[2-[2-[[(4S)-4-carboxy-4-(17-carboxyheptadecanoyl-amino)butanoyl]amino]ethoxy]ethoxy]acetyl]amino]ethoxy]ethoxy]acetyl]amino]-eth … (ligand, Cys26 of the GLP-1 part (GLP-1(7-37) numbering; residue 20 of the chain) S-alkylated with substituent Chem. 7) HGEGTFTSDVSSYLEEQAACEFIAWLVKGGGGAQPGAQPGAQPGAQPAHPIPDSSPLLQFGGQVRQRYLYTDDAQQTEAHLEIREDGTVGGAADQSPESLLQLKALKPGVIQILGVKTSRFLCQRPDGALYGSLHFDPEACSFRELLLEDGYNVYQSEAHGLPLHLPGQKSPHRDPAPRGPARFLPLPGLPPALPEPPGILAPQPPDVGSSDPLSLVGGSQGRSPSYAS |
| 16.9 | 75.4 | 0.38 | 0.13 | – | – | S{Beta-27}-[2-[2-[[2-[2-[2-[[2-[2-[2-[[(4S)-4-carboxy-4-(17-carboxyheptadecanoyl-amino)butanoyl]amino]ethoxy]ethoxy]acetyl]amino]ethoxy]ethoxy]acetyl]amino]-eth … (ligand, Cys27 of the GLP-1 part (GLP-1(7-37) numbering; residue 21 of the chain) S-alkylated with substituent Chem. 7) HGEGTFTSDVSSYLEEQAAKCFIAWLVKGGGGAQPGAQPGAQPGAQPAHPIPDSSPLLQFGGQVRQRYLYTDDAQQTEAHLEIREDGTVGGAADQSPESLLQLKALKPGVIQILGVKTSRFLCQRPDGALYGSLHFDPEACSFRELLLEDGYNVYQSEAHGLPLHLPGQKSPHRDPAPRGPARFLPLPGLPPALPEPPGILAPQPPDVGSSDPLSLVGGSQGRSPSYAS |
| 18 | 391 | 7.57 | 0.2 | – | – | S{Beta-27}-[2-[2-[[2-[2-[2-[[2-[2-[2-[[(4S)-4-carboxy-4-(17-carboxyheptadecanoyl-amino)butanoyl]amino]ethoxy]ethoxy]acetyl]amino]ethoxy]ethoxy]acetyl]amino]-eth … (ligand, Cys27 of the GLP-1 part (GLP-1(7-37) numbering; residue 21 of the chain) and Cys180 of the FGF21 part (FGF21(1-181) numbering; residue 228 of the chain) each S-alkylated with substituent Chem. 7) HGEGTFTSDVSSYLEEQAAKCFIAWLVKGGGGAQPGAQPGAQPGAQPAHPIPDSSPLLQFGGQVRQRYLYTDDAQQTEAHLEIREDGTVGGAADQSPESLLQLKALKPGVIQILGVKTSRFLCQRPDGALYGSLHFDPEACSFRELLLEDGYNVYQSEAHGLPLHLPGQKSPHRDPAPRGPARFLPLPGLPPALPEPPGILAPQPPDVGSSDPLSLVGPSQGRSPSYCS |
